From patent US20160137713A1 (HANALL BIOPHARMA, published 2016)

Experiments:
[1] = target: T1, human FcRn on HEK293 cells (human, UniProt P55899 24-365; P61769 21-119); assay: FACS on hFcRn-overexpressing HEK293 cells at pH 7.4, Alexa488 anti-human goat antibody; MFI relative to hIgG1
T1 construct: whole, on cells; also called hFcRn
Description: (§1) In stable HEK293 cells expressing human FcRn, the degrees of binding of antibody to FcRn at various pHs were analyzed using a FACS system. Specifically, 100,000 stable HEK293 cells were washed with PBS and centrifuged in a table top microcentrifuge at 4500 rpm for 5 minutes to obtain pellets. 1 μg of antibody was added to 100 μl of pH 6.0 or pH 7.4PBS/10 mM EDTA. The cell pellets were resuspended in 100 μl of the antibody solution and incubated on ice for 60 minutes. The cells were washed once with 150 μl of buffer having pH difference, and then pellets were obtained therefrom. Alexa488-labeled anti-human antibody goat antibody (1 mg/ml) was diluted at 1:20 in buffer having pH difference, and the pellets were resuspended in 100 μl of the buffer, and then cultured on ice for 60 minutes. The cells were washed once with 150 μl of buffer having pH difference, and pellets were obtained therefrom and resuspended in buffer having pH difference. The suspension was transferred into a tube for FACS analysis. These cells were analyzed by FACS using BD FACSDiva™ v6.1.3 software (BD Bioscience). The results of the analysis were expressed as Mean Fluorescence Intensity (MFI) (see FIG. 2).

rat FcRn on Rat-2 cells = target: T2, rat FcRn on Rat-2 cells (rat, UniProt P13599 23-366; P07151 21-119); assay: FACS on rat FcRn-expressing Rat-2 cells at pH 6.0 and pH 7.4, FITC anti-human IgG goat antibody; MFI relative to hIgG
T2 construct: whole, on cells
T2 sequence (looked up): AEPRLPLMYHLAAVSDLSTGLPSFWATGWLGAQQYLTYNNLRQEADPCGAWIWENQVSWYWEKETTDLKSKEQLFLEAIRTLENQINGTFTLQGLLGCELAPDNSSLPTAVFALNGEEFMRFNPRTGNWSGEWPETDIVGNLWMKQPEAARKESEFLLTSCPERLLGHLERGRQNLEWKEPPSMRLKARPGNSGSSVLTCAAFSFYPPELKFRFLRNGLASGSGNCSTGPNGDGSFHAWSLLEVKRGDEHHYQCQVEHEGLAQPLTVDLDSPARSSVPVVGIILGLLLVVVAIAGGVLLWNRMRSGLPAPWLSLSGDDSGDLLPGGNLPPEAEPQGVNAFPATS
T2 sequence (b2m, looked up): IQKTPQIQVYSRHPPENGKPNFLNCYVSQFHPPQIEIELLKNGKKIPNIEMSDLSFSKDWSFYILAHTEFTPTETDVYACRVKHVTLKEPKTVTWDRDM
Description: Rat-2 (KCTC #AC28203), rat fibroblasts stably expressing rat FcRn, were cultured in 10% FBS DMEM medium, and then detached from the culture plate by trypsin treatment. The cells were washed three times with cold binding buffer (PBS pH 6.0, 10 mM EDTA), and then diluted in binding buffer at a concentration of 10⁵ cells/ml. 100 μl of the cell dilution was dispensed into each 1.5-ml tube in such a manner that each tube contained 10⁴ cells, and 1 μl of HL161 antibody (1 mg/ml) was added to the dispensed cells. Next, the cells were incubated on ice. As control antibodies, 1 μl of each of mouse 1G3 antibody and human IgG antibody (Abcam, cat#. 409120), which bind to rat FcRn, was used. The 1G3 antibody was produced and purified from mouse hybridoma cells (ATCC CRL2434). The cells were recovered by centrifugation at 4° C. and 4000 rpm for 5 minutes, after which the cells were washed once with binding buffer and resuspended in 100 μl of binding buffer. As FITC-conjugated secondary antibody, 1 μl of anti-human IgG goat antibody (Invitrogen, cat#. A11013) was added to the cells. In the case of the experiment using anti-rat FcRn mouse antibody, the anti-mouse IgG goat antibody (Invitrogen, cat#. A11001) was incubated with the cells on ice for 1 hour, and then the cells were recovered by centrifugation at 4° C. and 4000 rpm for 5 minutes, washed once with binding buffer, resuspended in 400 μl of binding buffer and analyzed by FACS to examine the cross-reactivity of the HL161 antibodies with rat FcRn (see FIG. 4). An experiment at a pH of 7.4 was performed using binding buffer at a pH of 7.4 in the same manner as the experiment using binding buffer at a pH of 6.0. The degree of the binding of each antibody to rat FcRn was presented as relative MFI based on human IgG.

soluble human FcRn = target: T3, soluble human FcRn (human, UniProt P55899 24-297; P61769 21-119); assay: SPR, shFcRn immobilised, pH 7.4
T3 construct: extracellular domain;mature; Non-covalent heterodimer secreted by 293 cells, purified on IgG Sepharose; also called shFcRn; soluble FcRn
Description: Measurement of the binding ability of antibody by SPR was performed by immobilizing shFcRn as a ligand onto a Proteon GLC chip (Bio-Rad) and measuring affinity.
The analysis of ligand and analyte was performed using a Proteon GLC chip, and the interaction was analyzed at a pH of 6.0 and a pH of 7.4. Immobilization of the ligand was activated by injecting a 1:1 mixture of 1×EDAC (EDC) and 1× Surfo-NHS for 5 minutes. shFcRn was diluted in 10 mM sodium acetate (pH 4.5) at a concentration of 25 μg/ml and added to the ligand at a flow rate of 30 μl/min for 5 minutes. […] The analyte antibody was allowed to flow on the immobilized chip at a flow rate of 30 μl/min. […] The association time of the analyte antibody was 240 seconds, and the dissociation time was 600 seconds. Regeneration of the chip was performed by injecting 10 mM glycine (pH 2.5) at a flow rate of 100 μl/min for 18 seconds. Based on sensorgrams resulting from six concentrations of the analyte, kinetics analysis was performed using Proteon XPR36 software.

[2] = target: T1, human FcRn on HEK293 cells; assay: FACS on hFcRn-overexpressing HEK293 cells at pH 6.0, Alexa488 anti-human goat antibody; MFI relative to hIgG1
Description: as §1

T1 sequence (P55899 24-365, chain 1 of 2): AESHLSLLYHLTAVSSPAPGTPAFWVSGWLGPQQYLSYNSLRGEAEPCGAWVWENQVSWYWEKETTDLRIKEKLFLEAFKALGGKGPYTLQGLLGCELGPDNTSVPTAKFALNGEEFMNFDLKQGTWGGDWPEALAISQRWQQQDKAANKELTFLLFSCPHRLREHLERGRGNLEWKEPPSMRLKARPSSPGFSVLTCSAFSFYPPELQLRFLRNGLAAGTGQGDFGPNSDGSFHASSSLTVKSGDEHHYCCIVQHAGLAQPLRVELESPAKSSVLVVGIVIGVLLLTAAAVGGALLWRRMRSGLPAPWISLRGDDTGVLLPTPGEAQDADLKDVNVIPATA
T1 sequence (P61769 21-119, chain 2 of 2): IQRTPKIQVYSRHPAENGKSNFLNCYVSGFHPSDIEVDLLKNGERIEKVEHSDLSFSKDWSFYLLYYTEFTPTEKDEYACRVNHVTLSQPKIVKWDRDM
T3 sequence (P55899 24-297, chain 1 of 2): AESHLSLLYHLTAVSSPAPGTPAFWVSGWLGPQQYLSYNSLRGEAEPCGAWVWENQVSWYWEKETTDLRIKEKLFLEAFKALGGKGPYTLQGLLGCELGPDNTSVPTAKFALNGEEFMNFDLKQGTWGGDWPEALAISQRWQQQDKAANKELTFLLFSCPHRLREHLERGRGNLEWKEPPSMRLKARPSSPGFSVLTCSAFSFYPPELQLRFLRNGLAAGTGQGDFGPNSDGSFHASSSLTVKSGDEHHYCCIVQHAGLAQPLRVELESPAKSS
T3 sequence (P61769 21-119, chain 2 of 2): as the sequence (P61769 21-119, chain 2 of 2) above

B1: HL161-11H (antibody, V domains shown)
VH: QMQLVESGGGLVQPGRSLRLSCAASGFTFSSYAMHWVRQAPGKGLEWVAVISYDGSNKYYADSVKGRFTISRDNSKNTLYLQMNSLRSEDTAVYYCSRGSGGRDAFDVWGQGTMITVSS
VL: DIQMTQSPSTLSASVGDRVTITCRASQSISSRLAWYQQKPGKAPKLLIYKASSLETGVPSRFSGSGSGTEFTLTISSLQPDDFATYYCQQTNSFPLTFGGGTKVEIK
notes: Whole human IgG from pNATAB vectors
B1 was tested, and the “Relative MFI (Fold)” value [1] was 10.6 fold, the binding result (rat FcRn on Rat-2 cells) was “no binding” and the koff (soluble human FcRn) was 0.00045 s⁻¹. The kon (soluble human FcRn) was 500000 M⁻¹ s⁻¹ and the “Relative MFI (Fold)” value [2] was 3.5 fold.
